According to patent US20200283482A1, “BICYCLIC PEPTIDE LIGAND PRR-A CONJUGATES AND USES THEREOF” (BicycleRD Limited, priority 2017, published 2020):
Starred links: 1 amine or outer side, 2 acyl side, 3 side chain; linkers in the order of their positions; H or OH if unused. Positions of bridges follow the written chain, without caps; N, C: chain ends. Non-standard residues stand in square brackets, D forms with d. Residues, ends and D or L forms follow the SMILES beside them. *: point of attachment. X11 = CCCOc1nc(NC(=O)OCc2ccc(NC(=O)[C@H](CCCNC(N)=O)NC(=O)[C@@H](NC(=O)Cn3cc(CCC(=O)*)nn3)C(C)C)cc2)c2[nH]c(=O)n(Cc3ccc(OCCN(C)C)nc3)c2n1; X12 = CCOCc1nc2c(NC(=O)OCCN(C)C(=O)OCc3ccc(NC(=O)[C@H](CCCNC(N)=O)NC(=O)[C@@H](NC(=O)Cn4cc(CCC(=O)*)nn4)C(C)C)cc3)nc3ccccc3c2n1CC(C)(C)O; X6 = CCN(Cc1nc2c(N)nc3ccccc3c2n1CC(C)(C)O)C(=O)OCc1ccc(NC(=O)[C@H](CCCNC(N)=O)NC(=O)[C@@H](NC(=O)Cn2cc(CCC(=O)*)nn2)C(C)C)cc1; X3 = CCOCc1nc2c(NC(=O)OCc3ccc(NC(=O)[C@H](CCCNC(N)=O)NC(=O)[C@@H](NC(=O)Cn4cc(CCC(=O)*)nn4)C(C)C)cc3)nc3ccccc3c2n1CC(C)(C)O; X10 = CCCOc1nc(NC(=O)OCCSSC(C)CCC(=O)*)c2[nH]c(=O)n(Cc3ccc(OCCN(C)C)nc3)c2n1; X2 = CCOCc1nc2c(NC(=O)OCCSCC(=O)*)nc3ccccc3c2n1CC(C)(C)O; 1Nal = N[C@@H](Cc1cccc2ccccc12)C(=O)O; TBMB = c1c(C[*:1])cc(C[*:3])cc1C[*:2]; Tle = CC(C)(C)[C@H](N)C(=O)O; βAla = NCCC(=O)O; Sar = CNCC(=O)O

Columns and labels:
Plasma stability, rat = format: in vitro ADME; conditions: pH 7.4
Description: (§1) The pooled frozen mouse, rat, dog, monkey or human plasma is thawed in a water bath at 37° C. prior to experiment. Plasma is centrifuged at 4000 rpm for 5 min and the clots are removed if any. […] For positive controls, 100 μM intermediate solution is prepared by diluting 20 μL of the stock solution with 180 μL 45% MeOH/H2O. […] For compounds I-7 to […]-17, […]-22, and […]-33, at each time point (0, 1, 2, 4, 6 and 24 hr), reactions were stopped by removing the plates from water bath and 200 μL 20 mM NH4OAC mix well first and then adding 800 μL of ice-cold stop solution (200 ng/mL Labetalol, 200 ng/mL Tolbutamide, 500 ng/mL N6-Ben and 40 mM DBAA in 100% Methanol). […] Sample plates were vortexed immediately on a plate shaker at 800 rpm for 10 min and then centrifuged at 4,000 rpm for 10 min. An aliquot of supernatant (200 μL) is transferred from each well before submitting to LC-MS/MS analysis. The percentage of test compound remaining at the individual time points relative to the 0 hour sample is calculated using following equation: Percent Remaining=100×(PAR at appointed incubation time/PAR at T0 time) where PAR is the peak area ratio of analyte versus internal standard (IS).

Blood stability, mouse = format: in vitro ADME, CD-1 mouse; conditions: male, CD-1, mouse
Description: CD-1 mouse blood (n≥2, male, fasted overnight) is collected from animals housed at an internal facility. (EDTA-K2 is used as anticoagulant)
The test compounds and positive control stock solutions are prepared to 10 mM in DMSO or ultrapure water. Control compounds bisacodyl, enalapril and propantheline known to be metabolised by blood are also incubated alongside each batch of test compounds I-7, I-22, I-24, I-25, I-27, and I-29 to I-33. The dosing solutions of test compounds and controls are prepared by diluting the stock solution with 45% MeOH/H2O to achieve 100 uM. Test compound solutions (final incubation concentration=2 μM) are incubated with blood (final DMSO concentration≤1%) at six different time points (0, 1, 2, 4, 6 and 24 hours) in duplicate (n=2). The reaction is terminated by adding 100 uL ultra-pure water, mixing well, then adding 800 uL of 100% methanol containing 200 ng/mL tolbutamide and 200 ng/mL labetalol as internal standards. Samples are then vortexed and centrifuged at 3200×g for 20 minutes. Following centrifugation, the concentration of test compound in the supernatant is determined semi-quantitatively by LC-MS/MS. The percentage of test compound remaining at the individual time points relative to the 0 hour sample is then reported. The percent remaining of test compound after incubation in blood is calculated using following equation: Percent Remaining=100×(PAR at appointed incubation time/PAR at T0 time) where PAR is the peak area ratio of analyte versus internal standard (IS).

Plasma stability, dog = format: in vitro ADME; conditions: pH 7.4
Description: as §1

Plasma stability, mouse = format: in vitro ADME; conditions: pH 7.4
Description: as §1

Plasma stability, cyno = format: in vitro ADME; conditions: cynomolgus monkey, pH 7.4
Description: as §1

Plasma stability, human = format: in vitro ADME; conditions: pH 7.4
Description: as §1

[1] = rat plasma, 2 μM, 37° C., read-out: T1/2 (rat)
[2] = dog plasma, 2 μM, 37° C., read-out: T1/2 (dog)
[3] = mouse plasma, 2 μM, 37° C., read-out: T1/2 (mouse)
[4] = cyno plasma, 2 μM, 37° C., read-out: T1/2 (cyno)
[5] = human plasma, 2 μM, 37° C., read-out: T1/2 (human)

| SMILES | half-life at 2 μM (Plasma stability, rat; rat, plasma) | half-life at 2 μM (Blood stability, mouse) | half-life at 2 μM (Plasma stability, dog; dog, plasma) | half-life at 2 μM (Plasma stability, mouse; mouse, plasma) | half-life at 2 μM (Plasma stability, cyno; plasma) | half-life at 2 μM (Plasma stability, human; human, plasma) | half-life at 2 μM (Plasma stability, rat; [1]) | half-life at 2 μM (Plasma stability, dog; [2]) | half-life at 2 μM (Plasma stability, mouse; [3]) | half-life at 2 μM (Plasma stability, cyno; [4]) | half-life at 2 μM (Plasma stability, human; [5]) |
| --- | --- | --- | --- | --- | --- | --- | --- | --- | --- | --- | --- |
| CCOCc1nc2c(NC(=O)OCCSCC(=O)NCCC(=O)N(C)CC(=O)N(C)CC(=O)N(C)CC(=O)N(C)CC(=O)N(C)CC(=O)N(C)CC(=O)N(C)CC(=O)N(C)CC(=O)N(C)CC(=O)N(C)CC(=O)N[C@@H](C)C(=O)N[C@H]3CSCc4cc5cc(c4)CSC[C@H](NC(=O)[C@@H](C)NC(=O)[C@H](Cc4cccc6ccccc46)NC(=O)[C@H](CCC(=O)O)NC(=O)[C@H](CC(N)=O)NC(=O)[C@@H](C)NC3=O)C(=O)N[C@@H](CCC(=O)O)C(=O)N[C@@H](CC(=O)O)C(=O)N[C@@H](Cc3ccccc3)C(=O)N[C@@H](Cc3ccc(O)cc3)C(=O)N[C@@H](CC(=O)O)C(=O)N[C@@H](C(C)(C)C)C(=O)N[C@H](C(N)=O)CSC5)nc3ccccc3c2n1CC(C)(C)O [I-7] ({X2-βAla}-[Sar][Sar][Sar][Sar][Sar][Sar][Sar][Sar][Sar][Sar]AC[dA]NE[1Nal][dA]CEDFYD[Tle]C-NH2; linker 12-18-25 via TBMB) | 6 to 24 h | < 2 h | > 24 h | 6 to 24 h | > 24 h | > 24 h | – | – | – | – | – |
| CCCOc1nc(NC(=O)OCCSSC(C)CCC(=O)NCCC(=O)N(C)CC(=O)N(C)CC(=O)N(C)CC(=O)N(C)CC(=O)N(C)CC(=O)N(C)CC(=O)N(C)CC(=O)N(C)CC(=O)N(C)CC(=O)N(C)CC(=O)N[C@@H](C)C(=O)N[C@H]2CSCc3cc4cc(c3)CSC[C@H](NC(=O)[C@@H](C)NC(=O)[C@H](Cc3cccc5ccccc35)NC(=O)[C@H](CCC(=O)O)NC(=O)[C@H](CC(N)=O)NC(=O)[C@@H](C)NC2=O)C(=O)N[C@@H](CCC(=O)O)C(=O)N[C@@H](CC(=O)O)C(=O)N[C@@H](Cc2ccccc2)C(=O)N[C@@H](Cc2ccc(O)cc2)C(=O)N[C@@H](CC(=O)O)C(=O)N[C@@H](C(C)(C)C)C(=O)N[C@H](C(N)=O)CSC4)c2[nH]c(=O)n(Cc3ccc(OCCN(C)C)nc3)c2n1 (some centres unmarked) [I-17] ({X10-βAla}-[Sar][Sar][Sar][Sar][Sar][Sar][Sar][Sar][Sar][Sar]AC[dA]NE[1Nal][dA]CEDFYD[Tle]C-NH2; linker 12-18-25 via TBMB) | – | – | – | – | – | – | < 2 h | < 2 h | < 2 h | < 2 h | < 2 h |
| CCCOc1nc(NC(=O)OCc2ccc(NC(=O)[C@H](CCCNC(N)=O)NC(=O)[C@@H](NC(=O)Cn3cc(CCC(=O)NCCC(=O)N(C)CC(=O)N(C)CC(=O)N(C)CC(=O)N(C)CC(=O)N(C)CC(=O)N(C)CC(=O)N(C)CC(=O)N(C)CC(=O)N(C)CC(=O)N(C)CC(=O)N[C@@H](C)C(=O)N[C@H]4CSCc5cc6cc(c5)CSC[C@H](NC(=O)[C@@H](C)NC(=O)[C@H](Cc5cccc7ccccc57)NC(=O)[C@H](CCC(=O)O)NC(=O)[C@H](CC(N)=O)NC(=O)[C@@H](C)NC4=O)C(=O)N[C@@H](CCC(=O)O)C(=O)N[C@@H](CC(=O)O)C(=O)N[C@@H](Cc4ccccc4)C(=O)N[C@@H](Cc4ccc(O)cc4)C(=O)N[C@@H](CC(=O)O)C(=O)N[C@@H](C(C)(C)C)C(=O)N[C@H](C(N)=O)CSC6)nn3)C(C)C)cc2)c2[nH]c(=O)n(Cc3ccc(OCCN(C)C)nc3)c2n1 [I-18] ({X11-βAla}-[Sar][Sar][Sar][Sar][Sar][Sar][Sar][Sar][Sar][Sar]AC[dA]NE[1Nal][dA]CEDFYD[Tle]C-NH2; linker 12-18-25 via TBMB) | – | – | – | – | – | – | < 2 h | < 2 h | < 2 h | < 2 h | < 2 h |
| CCOCc1nc2c(NC(=O)OCc3ccc(NC(=O)[C@H](CCCNC(N)=O)NC(=O)[C@@H](NC(=O)Cn4cc(CCC(=O)NCCC(=O)N(C)CC(=O)N(C)CC(=O)N(C)CC(=O)N(C)CC(=O)N(C)CC(=O)N(C)CC(=O)N(C)CC(=O)N(C)CC(=O)N(C)CC(=O)N(C)CC(=O)N[C@@H](C)C(=O)N[C@H]5CSCc6cc7cc(c6)CSC[C@H](NC(=O)[C@@H](C)NC(=O)[C@H](Cc6cccc8ccccc68)NC(=O)[C@H](CCC(=O)O)NC(=O)[C@H](CC(N)=O)NC(=O)[C@@H](C)NC5=O)C(=O)N[C@@H](CCC(=O)O)C(=O)N[C@@H](CC(=O)O)C(=O)N[C@@H](Cc5ccccc5)C(=O)N[C@@H](Cc5ccc(O)cc5)C(=O)N[C@@H](CC(=O)O)C(=O)N[C@@H](C(C)(C)C)C(=O)N[C@H](C(N)=O)CSC7)nn4)C(C)C)cc3)nc3ccccc3c2n1CC(C)(C)O [I-22] ({X3-βAla}-[Sar][Sar][Sar][Sar][Sar][Sar][Sar][Sar][Sar][Sar]AC[dA]NE[1Nal][dA]CEDFYD[Tle]C-NH2; linker 12-18-25 via TBMB) | 2 to 6 h | < 2 h | > 24 h | 2 to 6 h | > 24 h | > 24 h | – | – | – | – | – |
| CCOCc1nc2c(NC(=O)OCCN(C)C(=O)OCc3ccc(NC(=O)[C@H](CCCNC(N)=O)NC(=O)[C@@H](NC(=O)Cn4cc(CCC(=O)NCCC(=O)N(C)CC(=O)N(C)CC(=O)N(C)CC(=O)N(C)CC(=O)N(C)CC(=O)N(C)CC(=O)N(C)CC(=O)N(C)CC(=O)N(C)CC(=O)N(C)CC(=O)N[C@@H](C)C(=O)N[C@H]5CSCc6cc7cc(c6)CSC[C@H](NC(=O)[C@@H](C)NC(=O)[C@H](Cc6cccc8ccccc68)NC(=O)[C@H](CCC(=O)O)NC(=O)[C@H](CC(N)=O)NC(=O)[C@@H](C)NC5=O)C(=O)N[C@@H](CCC(=O)O)C(=O)N[C@@H](CC(=O)O)C(=O)N[C@@H](Cc5ccccc5)C(=O)N[C@@H](Cc5ccc(O)cc5)C(=O)N[C@@H](CC(=O)O)C(=O)N[C@@H](C(C)(C)C)C(=O)N[C@H](C(N)=O)CSC7)nn4)C(C)C)cc3)nc3ccccc3c2n1CC(C)(C)O [I-32] ({X12-βAla}-[Sar][Sar][Sar][Sar][Sar][Sar][Sar][Sar][Sar][Sar]AC[dA]NE[1Nal][dA]CEDFYD[Tle]C-NH2; linker 12-18-25 via TBMB) | < 2 h | < 2 h | – | < 2 h | > 24 h | > 24 h | – | – | – | – | – |
| CCN(Cc1nc2c(N)nc3ccccc3c2n1CC(C)(C)O)C(=O)OCc1ccc(NC(=O)[C@H](CCCNC(N)=O)NC(=O)[C@@H](NC(=O)Cn2cc(CCC(=O)NCCC(=O)N(C)CC(=O)N(C)CC(=O)N(C)CC(=O)N(C)CC(=O)N(C)CC(=O)N(C)CC(=O)N(C)CC(=O)N(C)CC(=O)N(C)CC(=O)N(C)CC(=O)N[C@@H](C)C(=O)N[C@H]3CSCc4cc5cc(c4)CSC[C@H](NC(=O)[C@@H](C)NC(=O)[C@H](Cc4cccc6ccccc46)NC(=O)[C@H](CCC(=O)O)NC(=O)[C@H](CC(N)=O)NC(=O)[C@@H](C)NC3=O)C(=O)N[C@@H](CCC(=O)O)C(=O)N[C@@H](CC(=O)O)C(=O)N[C@@H](Cc3ccccc3)C(=O)N[C@@H](Cc3ccc(O)cc3)C(=O)N[C@@H](CC(=O)O)C(=O)N[C@@H](C(C)(C)C)C(=O)N[C@H](C(N)=O)CSC5)nn2)C(C)C)cc1 [I-33] ({X6-βAla}-[Sar][Sar][Sar][Sar][Sar][Sar][Sar][Sar][Sar][Sar]AC[dA]NE[1Nal][dA]CEDFYD[Tle]C-NH2; linker 12-18-25 via TBMB) | > 24 h | 6 to 24 h | – | 6 to 24 h | > 24 h | > 24 h | – | – | – | – | – |
